Each block holds one molecule with its values, some of them ahead of it.
Columns and labels:
[1] = molecular target: human protein Axl (cellular form on the cell surface) (human) (UniProt P30530); experiment: flow cytometry, 9G4 labelling of untreated (No Ab) SN12C cells
[2] = molecular target: human protein Axl (cellular form on the cell surface) (human) (UniProt P30530); experiment: cell-based or functional assay
[3] = molecular target: human protein Axl (cellular form on the cell surface) (human) (UniProt P30530); experiment: flow cytometry, 9G4 labelling of SN12C cells treated 24 h with 9G4
[4] = molecular target: human protein Axl (cellular form on the cell surface) (human) (UniProt P30530); experiment: Qifikit quantitative flow cytometry on A172 cells
[5] = molecular target: human protein Axl (cellular form on the cell surface) (human) (UniProt P30530); experiment: Qifikit quantitative flow cytometry on NCI-H226 cells
[6] = molecular target: human protein Axl (cellular form on the cell surface) (human) (UniProt P30530); experiment: Qifikit quantitative flow cytometry on MDA-MB-231 cells
[7] = molecular target: human protein Axl (cellular form on the cell surface) (human) (UniProt P30530); experiment: Qifikit quantitative flow cytometry on Panc1 cells
[8] = molecular target: human protein Axl (cellular form on the cell surface) (human) (UniProt P30530); experiment: Qifikit quantitative flow cytometry on Calu-1 cells
[9] = molecular target: human protein Axl (cellular form on the cell surface) (human) (UniProt P30530); experiment: flow cytometry, MAB154 labelling of untreated (No Ab) SN12C cells
[10] = molecular target: human protein Axl (cellular form on the cell surface) (human) (UniProt P30530); experiment: Qifikit quantitative flow cytometry on NCI-H125 cells
[11] = molecular target: human protein Axl (cellular form on the cell surface) (human) (UniProt P30530); experiment: Qifikit quantitative flow cytometry on A431 cells
[12] = molecular target: human protein Axl (cellular form on the cell surface) (human) (UniProt P30530); experiment: Qifikit quantitative flow cytometry on MCF7 cells
[13] = molecular target: human protein Axl (cellular form on the cell surface) (human) (UniProt P30530); experiment: Qifikit quantitative flow cytometry on MDA-MB-435S cells
[14] = molecular target: human protein Axl (cellular form on the cell surface) (human) (UniProt P30530); experiment: Qifikit quantitative flow cytometry on SN12C cells
[15] = molecular target: human protein Axl (cellular form on the cell surface) (human) (UniProt P30530); experiment: Qifikit quantitative flow cytometry on DU-145 cells
[16] = molecular target: human protein Axl (cellular form on the cell surface) (human) (UniProt P30530); experiment: Qifikit quantitative flow cytometry on PC3 cells
[17] = molecular target: T1, human protein Axl (cellular form on the cell surface) (human, UniProt P30530 26-894); experiment: flow cytometry on SN12C cells, anti-human IgG Alexa488; table under the graph, unit from the axis Log [M]
T1 construct: also called Axl receptor; membrane Axl receptor
T1 sequence: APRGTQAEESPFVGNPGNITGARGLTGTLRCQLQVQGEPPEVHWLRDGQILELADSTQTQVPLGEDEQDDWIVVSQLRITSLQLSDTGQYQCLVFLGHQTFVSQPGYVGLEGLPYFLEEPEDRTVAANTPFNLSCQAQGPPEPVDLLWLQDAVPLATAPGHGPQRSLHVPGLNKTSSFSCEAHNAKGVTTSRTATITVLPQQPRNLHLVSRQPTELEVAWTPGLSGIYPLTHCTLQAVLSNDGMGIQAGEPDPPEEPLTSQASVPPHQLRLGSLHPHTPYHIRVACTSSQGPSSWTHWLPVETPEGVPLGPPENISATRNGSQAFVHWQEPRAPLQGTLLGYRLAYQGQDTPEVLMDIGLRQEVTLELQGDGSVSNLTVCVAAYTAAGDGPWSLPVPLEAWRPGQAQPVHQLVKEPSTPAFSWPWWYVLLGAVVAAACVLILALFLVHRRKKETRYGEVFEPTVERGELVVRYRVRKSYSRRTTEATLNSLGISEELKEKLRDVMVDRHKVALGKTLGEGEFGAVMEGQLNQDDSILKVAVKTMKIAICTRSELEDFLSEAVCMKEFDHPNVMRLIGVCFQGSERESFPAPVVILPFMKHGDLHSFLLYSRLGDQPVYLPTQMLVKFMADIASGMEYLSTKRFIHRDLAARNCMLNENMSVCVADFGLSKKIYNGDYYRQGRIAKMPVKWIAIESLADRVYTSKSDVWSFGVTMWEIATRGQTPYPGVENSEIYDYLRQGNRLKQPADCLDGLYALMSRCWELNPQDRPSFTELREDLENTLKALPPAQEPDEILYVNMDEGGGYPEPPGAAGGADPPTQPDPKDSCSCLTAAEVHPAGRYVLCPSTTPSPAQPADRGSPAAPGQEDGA
Procedure: Cells were detached using trypsin and cell concentration was adjusted at 1×10⁶ cells/ml in FACS buffer. A volume of 100 μL of cell suspension was incubated with increasing concentrations of either isotype controls or anti-Axl antibodies for 20 min. at 4° C. Cells were then washed three times with FACS buffer and incubated for 20 min. more using either anti-mouse IgG Alexa488 secondary antibody or anti-human IgG Alexa488 secondary antibody at 4° C. in the dark. Cells were washed three times with FACS buffer and resuspended with 100 μl of FACS buffer before adding propidium iodide.

MFI at T24 h [1]: 11 MFI
% remaining Axl, SN12C cells [2]: 117%
Δ (MFI No Ab 24 h - MFI Ab 24 h), SN12C cells [2]: -2 MFI
MFI at T24 h [3]: 13 MFI
Molecule: 9G4 murine IgG1 isotype control antibody

ABC (Qifikit) [4]: 52400 ABC
ABC (Qifikit) [5]: 32100 ABC
ABC (Qifikit) [6]: 61200 ABC
ABC (Qifikit) [7]: 36800 ABC
ABC (Qifikit) [8]: > 100000 ABC
MFI at T24 h [9]: 950 MFI
ABC (Qifikit) [10]: 5540 ABC
ABC (Qifikit) [11]: 3950 ABC
ABC (Qifikit) [12]: 71 ABC
ABC (Qifikit) [13]: 17800 ABC
ABC (Qifikit) [14]: > 100000 ABC
antigen binding capacity (ABC) [14]: > 100000 ABC
ABC (Qifikit) [15]: 55300 ABC
ABC (Qifikit) [16]: 8420 ABC
Molecule: MAB154 commercial anti-Axl antibody (R and D Systems, ref MAB154)

EC50 [17]: 1.81 nM
B1: c1613F12 (chimeric 1613F12) (antibody, V domains shown)
VH: EVHLQQSGAELVKPGASVKLSCTASGFNIRDTYIHWVKQRPEQGLEWIGRLDPANGHTKYGPNFQGRATMTSDTSSNTAYLQLSSLTSEDTAVYYCARGAYYYGSSGLFYFDYWGQGTTLSVSS
VL: DVQITQSPSYLATSPGETITINCRASKSISKYLAWYQEKPGKTNKLLIYSGSTLQSGVPSRFSGSGSGTDFTLTISSLEPEDFAMYFCQQHHEYPLTFGAGTELELK
notes: Murine variable domains with human constant regions; also called chimeric form of the 1613F12
